Test results taken from patent publication US20070203087A1.

Biological target: aggrecan (core protein carrying chondroitin sulfate chains) made by rat chondrosarcoma LTC cells (rat) (UniProt P07897)

Row | chondroitin sulfate synthesis activity (35S sulfate label in chondroitinase ABC-digested GAG fractions of transfected LTC cells and culture medium) [fold] | Substance
1 | 2.2 | human chondroitin sulfate N-acetylgalactosaminyltransferase-1 (enzyme)
2 | 1.6 | human chondroitin sulfate glucuronyltransferase (enzyme)
